Results as given in article PMC4032242.

Molecular target: type I IFN-β receptor (human (endogenous in A549 and Daudi)) (UniProt P48551)
UniProt P48551, sequence (P48551 27-515): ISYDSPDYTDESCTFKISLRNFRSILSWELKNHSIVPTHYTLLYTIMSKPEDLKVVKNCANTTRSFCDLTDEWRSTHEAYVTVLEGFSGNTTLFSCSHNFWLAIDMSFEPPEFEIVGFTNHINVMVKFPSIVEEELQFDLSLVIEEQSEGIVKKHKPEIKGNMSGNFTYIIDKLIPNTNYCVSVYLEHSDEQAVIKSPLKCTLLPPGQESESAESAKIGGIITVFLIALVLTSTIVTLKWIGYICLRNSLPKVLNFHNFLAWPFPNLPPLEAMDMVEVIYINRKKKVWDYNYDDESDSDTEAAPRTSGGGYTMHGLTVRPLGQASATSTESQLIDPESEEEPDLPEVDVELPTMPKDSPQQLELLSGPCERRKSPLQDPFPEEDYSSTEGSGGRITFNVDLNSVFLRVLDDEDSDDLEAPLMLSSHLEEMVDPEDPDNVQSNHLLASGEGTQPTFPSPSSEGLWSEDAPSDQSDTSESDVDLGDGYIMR

50% response in a FACS assay of IFN-inducible expression of MHC class I on the surface of A549 cells | IC50 in the antiproliferative assay (Daudi cells, 48 hr) | in vitro anti-viral activity (protection of A549 cells against the cytopathic effect of EMCV), average of three lots | in vitro anti-viral activity (protection of A549 cells against the cytopathic effect of EMCV), average of two lots | in vitro anti-viral activity (protection of A549 cells against the cytopathic effect of EMCV) | Substance
265 pg/mL | 0.014 ng/mL | 2.99e+08 IU/mg |  |  | R27T (rhIFN-β mutein with N-glycosylation at the 25th and 80th amino acid) (from UniProt P01574 22-187) (ligand)
359 pg/mL | 0.022 ng/mL |  | 2.52e+08 IU/mg |  | R27TΔGlyc (from UniProt P01574 22-187) (ligand)
238 pg/mL | 0.029 ng/mL |  |  | 2.88e+08 IU/mg | Rebif (recombinant human interferon-β 1a) (from UniProt P01574 22-187) (ligand)
